Experiments:
[1] = molecular target: human zalpha11 receptor (human) (UniProt Q9HBE5); test: cell-based or functional assay
[2] = molecular target: human zalpha11 receptor (human) (UniProt Q9HBE5); test: 125I-ligand competition on BaF3/zalpha11 cells, relative to non-specific competitor Interferon Gamma
[3] = molecular target: human zalpha11 receptor (human) (UniProt Q9HBE5); test: 125I-ligand competition on Raji cells, relative to no competitor
[4] = molecular target: human zalpha11 receptor (human) (UniProt Q9HBE5); test: 125I-ligand competition on BaF3/zalpha11 cells, relative to no competitor
[5] = molecular target: human zalpha11 receptor (human) (UniProt Q9HBE5); test: 125I-ligand competition on Raji cells, relative to non-specific competitor Interferon Gamma

human zalpha11 receptor (human), sequence (Q9HBE5 20-538 limits assumed): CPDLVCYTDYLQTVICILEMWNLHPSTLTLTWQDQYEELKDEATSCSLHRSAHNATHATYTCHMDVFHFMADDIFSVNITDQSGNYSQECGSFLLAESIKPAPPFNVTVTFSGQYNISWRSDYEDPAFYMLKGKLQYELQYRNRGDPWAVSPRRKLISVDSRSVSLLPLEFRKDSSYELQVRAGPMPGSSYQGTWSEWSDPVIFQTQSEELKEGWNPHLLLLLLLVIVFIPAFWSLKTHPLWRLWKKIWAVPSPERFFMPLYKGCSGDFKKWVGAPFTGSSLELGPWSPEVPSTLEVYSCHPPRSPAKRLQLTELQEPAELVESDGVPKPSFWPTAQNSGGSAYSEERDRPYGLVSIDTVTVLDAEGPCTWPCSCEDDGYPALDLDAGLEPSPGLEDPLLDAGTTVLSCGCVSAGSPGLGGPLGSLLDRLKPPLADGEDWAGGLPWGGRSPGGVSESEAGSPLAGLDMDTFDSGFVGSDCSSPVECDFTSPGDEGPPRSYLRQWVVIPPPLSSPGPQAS
human zalpha11 Ligand-saporin immunotoxin conjugate, sequence (Q9HBE4 32-162): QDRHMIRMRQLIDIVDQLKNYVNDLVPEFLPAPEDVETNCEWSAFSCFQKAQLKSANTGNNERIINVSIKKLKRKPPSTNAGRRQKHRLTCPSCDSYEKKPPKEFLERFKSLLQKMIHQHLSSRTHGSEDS

fold decrease in binding of 125I-labeled ligand at 250 fold molar excess [2] | fold decrease in binding of 125I-labeled ligand at 250 fold molar excess [3] | fold decrease in binding of 125I-labeled ligand at 250 fold molar excess [4] | fold decrease in binding of 125I-labeled ligand at 250 fold molar excess [5] | Substance | growth inhibition of IM-9 cells at the maximal conjugate concentration (250 ng/ml), Alamar Blue [1] | growth inhibition of RAMOS cells at the maximal conjugate concentration (250 ng/ml), Alamar Blue [1]
– | – | – | – | human zalpha11 Ligand-saporin immunotoxin conjugate | 79% | 65%
2 fold | 3.7 fold | 3.06 fold | 3 fold | purified CHO recombinant human zalpha11 Ligand (huzalpha11L-CHO) (from UniProt Q9HBE4 32-162) | – | –

Reference: EP1881070A2
